Data: article PMC6899756, “Identification of amino acid residues of nerve growth factor important for neurite outgrowth in human dorsal root ganglion neurons” (The European Journal of Neuroscience, 2019)

Experiments:
[1] = target: T1, tropomyosin-related kinase A (TrkA) receptor (human, UniProt P04629-2 33-790, phosphotyrosine at 490 (Y490) and at 785 (Y785) after treatment of the cells with NGF); assay: cell-based or functional assay
[2] = target: T1, tropomyosin-related kinase A (TrkA) …; assay: cell-based or functional assay; remark: listed apart in the source

T1 sequence (P04629 other isoform, or with tags, fused parts or gaps): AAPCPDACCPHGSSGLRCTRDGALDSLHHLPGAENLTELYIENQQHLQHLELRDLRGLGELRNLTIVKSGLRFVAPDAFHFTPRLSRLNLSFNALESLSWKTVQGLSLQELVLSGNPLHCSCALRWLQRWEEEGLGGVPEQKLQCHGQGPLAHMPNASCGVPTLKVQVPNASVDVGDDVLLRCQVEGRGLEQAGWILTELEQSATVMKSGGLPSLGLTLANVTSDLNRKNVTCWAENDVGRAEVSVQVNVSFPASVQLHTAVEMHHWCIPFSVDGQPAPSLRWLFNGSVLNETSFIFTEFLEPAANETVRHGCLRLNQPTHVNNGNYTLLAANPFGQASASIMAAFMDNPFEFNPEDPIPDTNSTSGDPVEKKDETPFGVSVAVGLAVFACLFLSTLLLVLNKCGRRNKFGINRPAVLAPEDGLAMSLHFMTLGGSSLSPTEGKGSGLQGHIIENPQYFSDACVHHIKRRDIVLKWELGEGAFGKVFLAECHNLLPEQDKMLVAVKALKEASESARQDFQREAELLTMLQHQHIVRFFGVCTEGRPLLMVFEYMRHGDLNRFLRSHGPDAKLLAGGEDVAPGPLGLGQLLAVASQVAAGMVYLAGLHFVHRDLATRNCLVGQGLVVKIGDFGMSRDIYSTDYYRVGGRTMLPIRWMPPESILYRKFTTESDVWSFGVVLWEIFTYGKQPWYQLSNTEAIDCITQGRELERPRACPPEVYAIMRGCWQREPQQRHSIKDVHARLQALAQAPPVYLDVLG

plateau of the second activation phase at around 10 μg/ml NGF-K95A/Q96A in U2OS-TrkA/p75-SHC1 cells, relative to wild-type NGF (interaction between TrkA and SHC1, enzyme fragment complementation) [1]: ~300%
second activation phase EC50 of NGF-K95A/Q96A in U2OS-TrkA/p75-SHC1 cells (interaction between TrkA and SHC1, enzyme fragment complementation) [1]: ~3 µg/mL
EC50 of NGF-K95A/Q96A added to U2OS-TrkA/p75-SHC1 cells for the interaction between TrkA and SHC1 (enzyme fragment complementation, chemiluminescence) [2]: 0.02 µg/mL
EC50 of NGF-R100E added to U2OS-TrkA/p75-SHC1 cells for the interaction between TrkA and SHC1 (enzyme fragment complementation, chemiluminescence) [2]: 0.00056 µg/mL
EC50 of NGF-W99A added to U2OS-TrkA/p75-SHC1 cells for the interaction between TrkA and SHC1 (enzyme fragment complementation, chemiluminescence) [2]: 0.023 µg/mL
EC50 of wild-type NGF added to U2OS-TrkA/p75-SHC1 cells for the interaction between TrkA and SHC1 (enzyme fragment complementation, chemiluminescence) [2]: 0.0042 µg/mL
B1: Src homology 2 domain containing transforming protein 1 (SHC1) (natural protein, UniProt P29353 1-583, looked up)
chain: MDLLPPKPKYNPLRNESLSSLEEGASGSTPPEELPSPSASSLGPILPPLPGDDSPTTLCSFFPRMSNLRLANPAGGRPGSKGEPGRAADDGEGIVGAAMPDSGPLPLLQDMNKLSGGGGRRTRVEGGQLGGEEWTRHGSFVNKPTRGWLHPNDKVMGPGVSYLVRYMGCVEVLQSMRALDFNTRTQVTREAISLVCEAVPGAKGATRRRKPCSRPLSSILGRSNLKFAGMPITLTVSTSSLNLMAADCKQIIANHHMQSISFASGGDPDTAEYVAYVAKDPVNQRACHILECPEGLAQDVISTIGQAFELRFKQYLRNPPKLVTPHDRMAGFDGSAWDEEEEEPPDHQYYNDFPGKEPPLGGVVDMRLREGAAPGAARPTAPNAQTPSHLGATLPVGQPVGGDPEVRKQMPPPPPCPGRELFDDPSYVNVQNLDKARQAVGGAGPPNPAINGSAPRDLFDMKPFEDALRVPPPPQSVSMAEQLRGEPWFHGKLSRREAEALLQLNGDFLVRESTTTPGQYVLTGLQSGQPKHLLLVDPEGVVRTKDHRFESVSHLISYHMDNHLPIISAGSELCLQQPVERKL
